The text below walks through data of doi:10.1101/2021.01.27.428455 (bioRxiv, 2021).

Several values for one entry are separate records, joined by “and”; a condition that tells them apart may be missing. Identical values can stand only once. Like-named read-outs stand apart in the source and are kept apart here.

B2: Lactococcus lactis Csm3 Asp30Ala (natural protein)
chain: MKLVIEGTIVLKTGMHIGGSSDFSAIGAVASPVVRDTLTRLPLIPGSSLKGKMRYLLAKELNNGILLNEPNNDQDEILRLFGSSEKDKIRRARLKFNDIKLSNLAELETFNVSSTEVKFENTINRKTAVANPRQIERVIAGSKFDFEIFYNLDDIKEVEKDFENIKQGFDLLEFDYLGGHGTRGSGRIAFENLSVITAVGNFEKINTLNEILGA

Test in all cases: cryo-EM structure
Data set [1] has as its target B2.
Data set [2] concerns the molecule itself.
Data set [3] concerns the molecule itself. This is another data set of the same source.

A word on the stoichiometry N: it is the number of molecules, sites or subunits per partner or assembly.

B1: Lactococcus lactis Csm2 with N-terminal His6-tag (natural protein)
chain: TELKIGNEKVNSTNFGDFAEKAIRGINHKPFVNSKGGEQKITTSKIRGILELVNKVYNRVINTNDVELSENILADIAYIKVKIAYESGREPVVKDFIQRTAFTAAITDVMNQRTRESFLLFARYVESLIAYFKFYGGKD
On to B1, for which, in data set [1], the binding result was “binds”. Besides, the “stoichiometry N” value in “cryo-EM structure [2]” was 3 and 2.
On to B2, for which the “stoichiometry N” value in the data set “cryo-EM structure [3]” is 4; in “cryo-EM structure [2]” it was 3.
